Source: PMC3212559, “Large-Scale Protein-Protein Interaction Analysis in Arabidopsis Mesophyll Protoplasts by Split Firefly Luciferase Complementation” (PLoS ONE, 2011)

Key:
Assay in all cases: split reporter (BiFC, NanoBiT); SFLC in living Arabidopsis mesophyll protoplasts: Aux/IAA-FLucN or MYB30-FLucN co-expressed with ARFCTD-FLucC or Aux/IAA-FLucC for 6 hr; 10 µg of each construct, 2×10^4 cells, 96-well plate, D-luciferin; relative activity standardised against ARF5CTD-FLucC + IAA28-FLucN
Settings in all cases: partners not purified
[1] = biological target: T1, ARF4 C-terminal domain (CTD)-FLucC (Arabidopsis, UniProt Q9ZTX9 665-788)
T1 construct: Arabidopsis auxin response factor 4, C-terminal dimerization domain (CTD); In the ARF-ARF tests the same CTD stood both as ARFCTD-FLucC and as ARFCTD-FLucN; one molecule for both; also called ARF4CTD-FLucC; ARFCTD-FLucC; source: Arabidopsis mesophyll protoplasts, transfected, in living cells (SFLC) and in lysate (co-IP); not shown: FLucC (firefly luciferase aa 394-550)
T1 sequence (looked up): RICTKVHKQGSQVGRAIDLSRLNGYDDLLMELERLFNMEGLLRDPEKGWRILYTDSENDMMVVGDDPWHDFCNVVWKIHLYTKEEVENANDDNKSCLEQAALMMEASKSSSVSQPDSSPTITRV

[2] = biological target: T2, ARF6 C-terminal domain (CTD)-FLucC (Arabidopsis, UniProt Q9ZTX8 796-935)
T2 construct: In the ARF-ARF tests the same CTD stood both as ARFCTD-FLucC and as ARFCTD-FLucN; one molecule for both; also called ARF6CTD-FLucC; ARFCTD-FLucC; source: Arabidopsis mesophyll protoplasts, transfected, in living cells (SFLC) and in lysate (co-IP); not shown: FLucC (firefly luciferase aa 394-550)
T2 sequence (looked up): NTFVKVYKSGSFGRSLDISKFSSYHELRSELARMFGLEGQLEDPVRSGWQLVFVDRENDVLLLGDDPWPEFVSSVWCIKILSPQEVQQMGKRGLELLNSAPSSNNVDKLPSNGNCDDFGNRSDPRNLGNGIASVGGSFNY

IAA12-FLucC = biological target: T3, IAA12-FLucC (Arabidopsis, UniProt Q38830 1-239)
T3 construct: Arabidopsis Aux/IAA protein IAA12; also called Aux/IAA-FLucC; source: Arabidopsis mesophyll protoplasts, transfected, in living cells; not shown: FLucC (firefly luciferase aa 394-550)
T3 sequence (looked up): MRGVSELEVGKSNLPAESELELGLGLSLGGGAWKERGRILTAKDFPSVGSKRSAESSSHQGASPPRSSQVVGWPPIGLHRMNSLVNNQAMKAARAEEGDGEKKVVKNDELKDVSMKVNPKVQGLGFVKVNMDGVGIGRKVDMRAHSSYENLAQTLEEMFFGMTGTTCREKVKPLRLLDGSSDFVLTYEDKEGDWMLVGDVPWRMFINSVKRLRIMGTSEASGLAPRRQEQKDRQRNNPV

IAA3-FLucC = biological target: T4, IAA3-FLucC (Arabidopsis, UniProt Q38822 1-189)
T4 construct: Arabidopsis Aux/IAA protein IAA3; also called Aux/IAA-FLucC; source: Arabidopsis mesophyll protoplasts, transfected, in living cells; not shown: FLucC (firefly luciferase aa 394-550)
T4 sequence (looked up): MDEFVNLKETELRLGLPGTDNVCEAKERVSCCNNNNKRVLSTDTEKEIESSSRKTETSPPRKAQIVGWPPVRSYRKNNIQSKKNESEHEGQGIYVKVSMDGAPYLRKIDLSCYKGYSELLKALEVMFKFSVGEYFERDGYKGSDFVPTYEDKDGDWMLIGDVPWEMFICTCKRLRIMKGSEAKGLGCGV

[3] = biological target: T5, C-terminal domain (CTD) of ARF5-FLucC (Arabidopsis, UniProt P93024 793-902)
T5 construct: In the ARF-ARF tests the same CTD stood both as ARFCTD-FLucC and as ARFCTD-FLucN; one molecule for both; also called ARF5CTD-FLucC; auxin response factor 5; source: Arabidopsis mesophyll protoplasts, transfected, in living cells (SFLC) and in lysate (co-IP); not shown: FLucC (firefly luciferase aa 394-550)
T5 sequence (looked up): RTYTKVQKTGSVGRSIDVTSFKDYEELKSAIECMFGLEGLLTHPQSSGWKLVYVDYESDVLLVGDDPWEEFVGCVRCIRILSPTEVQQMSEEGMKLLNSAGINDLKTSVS

IAA28-FLucC = biological target: T6, IAA28-FLucC (Arabidopsis, UniProt Q9XFM0 1-175)
T6 construct: Arabidopsis Aux/IAA protein IAA28; also called Aux/IAA-FLucC; source: Arabidopsis mesophyll protoplasts, transfected, in living cells; not shown: FLucC (firefly luciferase aa 394-550)
T6 sequence (looked up): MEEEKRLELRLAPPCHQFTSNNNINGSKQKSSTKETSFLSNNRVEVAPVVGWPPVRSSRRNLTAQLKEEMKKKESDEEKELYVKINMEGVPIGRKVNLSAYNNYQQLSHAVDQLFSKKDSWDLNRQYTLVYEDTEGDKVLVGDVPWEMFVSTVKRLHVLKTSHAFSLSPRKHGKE

Measured: relative luciferase activity (standardised against ARF5CTD-FLucC + IAA28-FLucN)

B1: MYB30-FLucN (natural protein, UniProt Q9SCU7 1-323, looked up)
chain: MVRPPCCDKGGVKKGPWTPEEDIILVTYIQEHGPGNWRAVPTNTGLLRCSKSCRLRWTNYLRPGIKRGNFTEHEEKMIVHLQALLGNRWAAIASYLPQRTDNDIKNYWNTHLKKKLNKVNQDSHQELDRSSLSSSPSSSSANSNSNISRGQWERRLQTDIHLAKKALSEALSPAVAPIITSTVTTTSSSAESRRSTSSASGFLRTQETSTTYASSTENIAKLLKGWVKNSPKTQNSADQIASTEVKEVIKSDDGKECAGAFQSFSEFDHSYQQAGVSPDHETKPDITGCCSNQSQWSLFEKWLFEDSGGQIGDILLDENTNFF
notes: transcription factor MYB30, the unrelated protein used as negative control; source: Arabidopsis mesophyll protoplasts, transfected, in living cells; not shown: FLucN (firefly luciferase aa 1-398)
< 0.1: all assays above
